The supplement of paper PMC10126150
± gives the standard deviation of the averaged measurements.

Tested on: ATP
Assay: switch fluorescence ratio, 500 uM ATP over buffer (Cy3 cluster intensity, sum of 5 cycles each) (fold (ratio)); higher = stronger signal-on switching upon ATP binding; sequences stand for … in TCGTCGGCAGCGTCAGATGTGTATAAGAGACAGTTTTTTTTTTTTTTTTTTTTTTTTT…TC
Details: aptamer strand: ATP DNA aptamer (quencher-CACCTGGGGGAGTATTGCGGAGGAAGG + anchor), 100 nM annealed; ATP concentration: 500 uM
Method in brief: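 For every switch-domain sequence, the fluorescence ratio is the mean of per-cluster values, each being summed target-cycle Cy3 intensity over summed buffer-cycle Cy3 intensity. Clusters outside 100-1000 RFU were excluded. On a modified Illumina MiSeq flow-cell, the Cy3-labelled switching-strand clusters were annealed to 100 nM quencher-labelled ATP aptamer, imaged in selection buffer and then after 15 min with 500 uM ATP at 22 °C. Five such cycles were run, with NaOH stripping and re-annealing between them.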
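Further: ATP exposure 15 min at 22 °C before imaging.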

Sequence | switch fluorescence ratio
CGCCTAAGTT | 1 ± 0.036
CGCCTAGTCG | 1.02 ± 0.074
CGCCTCAGGT | 1.46 ± 0.14
CGCCTCGGGC | 1.02 ± 0.016
CGCCTGGGCA | 1.02 ± 0.043
CGCGAAAATG | 1.02 ± 0.022
CGCGACGGGG | 1.03 ± 0.029
CGCGACTGGT | 0.994 ± 0.014
CGCGACTTAA | 1.044 ± 0.0047
CGCGACTTTC | 1.09 ± 0.021
CGCGAGAGGA | 1.01 ± 0.016
CGCGAGCGTT | 0.995 ± 0.049
CGCGCCGTTG | 1 ± 0.011
CGCGCCTGTG | 1.17 ± 0.23
CGCGCGGGCT | 0.998 ± 0.051
CGCGCGTCGG | 0.978 ± 0.021
CGCGCTGCTG | 1.03 ± 0.029
CGCGGAGCTT | 1.03 ± 0.033
CGCGGGAAGG | 1.02 ± 0.036
CGCGGGGAAG | 0.98 ± 0.053
CGCGGGGGAT | 1.03 ± 0.067
CGCGGGGGCG | 0.991 ± 0.025
CGCGGGGGTA | 0.995 ± 0.03
CGCGGTGCGG | 1.005 ± 0.0076
CGCGGTGTGG | 1.03 ± 0.022
CGCGGTTGCG | 0.9668 ± 0.0054

Sequence | switch fluorescence ratio
CGCGTAATAT | 2.07 ± 0.069
CGCGTACGTT | 1.05 ± 0.018
CGCGTAGGGC | 1.04 ± 0.016
CGCGTGCAGG | 1.02 ± 0.033
CGCGTGGTA | 1.07 ± 0.013
CGCGTTCATT | 0.972 ± 0.038
CGCGTTCGCT | 1.025 ± 0.0083
CGCGTTTCCC | 1.27 ± 0.038
CGCTAACTTG | 1.01 ± 0.047
CGCTACGTGT | 1.02 ± 0.038
CGCTACTTAT | 1.12 ± 0.029
CGCTAGATTT | 0.996 ± 0.031
CGCTATTGGT | 1.002 ± 0.0043
CGCTATTGTG | 1.01 ± 0.021
CGCTCCCATT | 1.46 ± 0.024
CGCTCGCCTG | 1.03 ± 0.016
CGCTCGGTTA | 0.956 ± 0.031
CGCTCGTGCG | 1 ± 0.017
CGCTGACGGA | 1.01 ± 0.053
CGCTGAGCTG | 1 ± 0.029
CGCTGAGTTT | 0.993 ± 0.021
CGCTGCTAAT | 1.58 ± 0.08
CGCTGGCCGG | 0.972 ± 0.037
CGCTGGGGGG | 1.02 ± 0.048
CGCTGTGACT | 1.02 ± 0.031
CGCTTAACGT | 1.05 ± 0.096

Sequence | switch fluorescence ratio
CGCTTAATCT | 1.07 ± 0.018
CGCTTAGGTT | 1.06 ± 0.061
CGCTTATAGG | 1.03 ± 0.052
CGCTTATGCA | 1.02 ± 0.02
CGCTTGTCAC | 1.18 ± 0.021
CGCTTGTGTT | 0.9821 ± 0.0015
CGCTTTACTA | 2.21 ± 0.07
CGCTTTAGTG | 1.01 ± 0.014
CGCTTTAGTT | 0.986 ± 0.026
CGCTTTTGGG | 0.999 ± 0.03
CGGAAAAAGC | 0.985 ± 0.028
CGGAAAATTA | 1.015 ± 0.0067
CGGAAACATT | 1.04 ± 0.039
CGGAAAGAAG | 0.989 ± 0.046
CGGAAAGCAG | 1.02 ± 0.028
CGGAAAGGGG | 0.978 ± 0.021
CGGAACCGGG | 1.03 ± 0.024
CGGAACGCTC | 1.71 ± 0.025
CGGAAGACGT | 1.02 ± 0.036
CGGAAGGCAT | 1.04 ± 0.025
CGGAATAATT | 1.04 ± 0.025
CGGAATAGTG | 1.2 ± 0.039
CGGAATTCAC | 1.39 ± 0.017
CGGACCGATG | 1.01 ± 0.0094
CGGACTCAAA | 1.12 ± 0.025
CGGAGAAGGG | 0.974 ± 0.029

Sequence | switch fluorescence ratio
CGGAGAGAGG | 1.01 ± 0.015
CGGAGAGCTG | 1.04 ± 0.014
CGGAGATAGT | 1.02 ± 0.028
CGGAGCTACG | 1.49 ± 0.04
CGGAGGAGC | 1.02 ± 0.016
CGGAGGAGGG | 1.21 ± 0.3
CGGAGGAGTA | 1.03 ± 0.03
CGGAGGGGAG | 0.977 ± 0.011
CGGAGTGTGT | 1.01 ± 0.016
CGGATATAAG | 1.01 ± 0.013
CGGATATTGT | 0.995 ± 0.028
CGGATCGACA | 0.976 ± 0.025
CGGATCGGTG | 0.991 ± 0.019
CGGATCTGAG | 1.01 ± 0.078
CGGATGAGGC | 1.08 ± 0.018
CGGATGCGTT | 0.981 ± 0.024
CGGATGGATC | 1.02 ± 0.041
CGGATGTGGT | 0.973 ± 0.016
CGGATGTGTT | 0.951 ± 0.048
CGGATGTTTT | 0.984 ± 0.02
CGGATTTTCA | 0.9999 ± 0.0067
CGGCACGTGG | 0.998 ± 0.021
CGGCACGTTA | 1.06 ± 0.025
CGGCAGAGGG | 1.02 ± 0.022
CGGCAGCCGG | 1.01 ± 0.062
CGGCAGGCGG | 1.05 ± 0.044

Sequence | switch fluorescence ratio
CGGCAGGGGA | 1.05 ± 0.051
CGGCAGTATC | 1.51 ± 0.12
CGGCATTGGG | 1.02 ± 0.04
CGGCCCAAGG | 1.22 ± 0.022
CGGCCCGTAG | 1.02 ± 0.036
CGGCCTTGCA | 1.026 ± 0.0095
CGGCGTACTG | 1.03 ± 0.059
CGGCGTGAGC | 0.993 ± 0.067
CGGCGTGTAT | 1 ± 0.055
CGGCTAGGGT | 0.998 ± 0.021
CGGCTAGTCT | 0.993 ± 0.13
CGGCTATGTT | 0.9712 ± 0.0027
CGGCTCCTCA | 1.08 ± 0.045
CGGCTGACTG | 1.05 ± 0.019
CGGCTGGGCT | 0.988 ± 0.024
CGGCTTAAGG | 1.01 ± 0.019
CGGCTTAATA | 1.02 ± 0.019
CGGCTTGTTG | 1.01 ± 0.017
CGGGAAAGTT | 1.02 ± 0.04
CGGGAACTCT | 1.013 ± 0.0054
CGGGAATAAA | 0.993 ± 0.016
CGGGAATCGA | 1 ± 0.012
CGGGACAGTG | 0.957 ± 0.024
CGGGACGTGT | 0.969 ± 0.021
CGGGAGAAAT | 1.24 ± 0.34
CGGGAGAGGA | 0.988 ± 0.033

Sequence | switch fluorescence ratio
CGGGAGAGGT | 0.988 ± 0.011
CGGGAGCTGT | 1.01 ± 0.072
CGGGAGGGGC | 1.02 ± 0.058
CGGGAGGGGG | 1.06 ± 0.07
CGGGAGGTGC | 1.02 ± 0.033
CGGGAGTTCG | 0.992 ± 0.077
CGGGATACGG | 1.19 ± 0.065
CGGGATAGGC | 1.12 ± 0.02
CGGGATATAT | 0.994 ± 0.028
CGGGATCCAG | 1.01 ± 0.0094
CGGGCAATTT | 1.38 ± 0.1
CGGGCAGGTT | 1.11 ± 0.18
CGGGCATATA | 1.1969 ± 8.5e-05
CGGGCATCGA | 0.995 ± 0.061
CGGGCATGCT | 1.04 ± 0.034
CGGGCCGGGC | 0.983 ± 0.029
CGGGCCGGGG | 1.02 ± 0.033
CGGGCGCGGA | 1.01 ± 0.048
CGGGCGCGTG | 0.978 ± 0.053
CGGGCGGGAT | 1.04 ± 0.029
CGGGCTAACA | 0.972 ± 0.017
CGGGCTAAGA | 1.02 ± 0.041
CGGGCTTGGT | 1.01 ± 0.032
